{
  "source": "the DeepSol protein solubility set",
  "data": [
    {"test": "soluble on expression in E. coli; label from the status in PepcDB or PDB records", "values": [
      {"sequence": "MSLRRLLQVFFFCPKQIYSFKLYQSLIFYNYTDAFFSVKIVSTTNFGGHIMSTTIIGFPRLGEFRELKFTTEKYFRKEISEEELLAAAKDLRAKHWNIVKEKGITEIPSNDFSHYDNFLDAAFLFNVVPASVQNLDLSDLERYFALGRGYQGEKGDVRALPMKKWFNTNYHYIVPKFEKDTQVKLAGHKIFDEFQEAKELGLNTRPVLVGPFTFLQLSDFEEGVKADDFVDSFVAAYQEVFAKLADLGATRIQLDEAALVKDLTAEEKALFLNLYNKLLADKKGLEVLFQTYFGDVRDVYADLVNLPVDAIGLDFVEGKKTLELVKGGFPADKTLYVGIVNGKNIWRNNYEKSLTVLEQIPAENIVLTSSCSLLHVPFTTANEEFEPALLNHFAFAVEKLDEIRDLDAIRNGQGSEALAANKELFATERVGENAELRARIAGLTDADYTRLPAFAEREAIQEEAFKLPALPTTTIGSFPQTKEVRAKRLAYRKGELSQKEYDAFLAETIDEWIKWQEDIDFDVLVHGEFERNDMVEYFGQNLSGYLFSKNGWVQSYGMRGVKPPIIWGDVTRLNPITVKWSSYAQSRTNKPVKGMLTGPVTILNWSFPREDISIKDSTLQIALAIKDEVLDLEAAGVKIIQIDEAALREKLPLRRSDWYEDYLDWAIPAFRLVHSTVAPDTQIHTHMCYSEFTDIIPAIDNMDADVISFEASRSNLEILDELKAKNFQTEVGPGVYDIHSPRVPNEGEIDNTIEAILAKVPSKKVWINPDCGLKTRGIPETKESLIRLVEAAKAAREKLEGHHHHHH", "soluble on expression in E. coli": "soluble"},
      {"sequence": "MAFELPKLPYAFDALEPHFDKETMEIHHDRHHNTYVTKLNAAVEGTDLESKSIEEIVANLDSVPANIQTAVRNNGGGHLNHSLFWELLSPNSEEKGTVVEKIKEQWGSLEEFKKEFADKAAARFGSGWAWLVVNNGQLEIVTTPNQDNPLTEGKTPILGLDVWEHAYYLKYQNKRPDYIGAFWNVVNWEKVDELYNATK", "soluble on expression in E. coli": "not soluble"},
      {"sequence": "GMGNIYQITVEEKAEHQRTLSFEFSLHDDLFKLLEKVDGKMDMTPEQTQAFMVGLKLFGEVMMQQRKHPLFKEFSAPFRAFMMNLKKQ", "soluble on expression in E. coli": "soluble"},
      {"sequence": "EEVTVVAFAKQKKESVIGSIQTVKPAELKTPSSNLTTSLAGRMAGVIAYQRSGEPGKDNANFFIRGVTTFGYKKDPLILLDNVEVSSDDLARVQPDDIASFSVLKDATSTALYGARGANGVILVTTKEGKEG", "soluble on expression in E. coli": "not soluble"},
      {"sequence": "MGSDKIHHHHHHMNLRNTAVFKFLVLTLGIISCQAYAEDTVIVNDHDISAIKDCWQKNSDDDTDVNVIKSCLRQEYNLVDAQLNKAYGEAYRYIEQVPRTGVKKPDTEQLNLLKKSQRAWLDFRDKECELILSNEDVQDLSDPYSESEWLSCMIIQTNTRTRQLQLYRNSEDFYPSPLTRG", "soluble on expression in E. coli": "not soluble"},
      {"sequence": "MPPADGTSQWLRKTVDSAAVILFSKTTCPYCKKVKDVLAEAKIKHATIELDQLSNGSAIQKCLASFSKIETVPQMFVRGKFIGDSQTVLKYYSNDELAGIVNESKYDYDLIVIGGGSGGLAAGKEAAKYGAKTAVLDYVEPTPIGTTWGLGGTCVNVGCIPKKLMHQAGLLSHALEDAEHFGWSLDRSKISHNWSTMVEGVQSHIGSLNWGYKVALRDNQVTYLNAKGRLISPHEVQITDKNQKVSTITGNKIILATGERPKYPEIPGAVEYGITSDDLFSLPYFPGKTLVIGASYVALECAGFLASLGGDVTVMVRSILLRGFDQQMAEKVGDYMENHGVKFAKLCVPDEIKQLKVVDTENNKPGLLLVKGHYTDGKKFEEEFETVIFAVGREPQLSKVLCETVGVKLDKNGRVVCTDDEQTTVSNVYAIGDINAGKPQLTPVAIQAGRYLARRLFAGATELTDYSNVATTVFTPLEYGACGLSEEDAIEKYGDKDIEVYHSNFKPLEWTVAHREDNVCYMKLVCRKSDNMRVLGLHVLGPNAGEITQGYAVAIKMGATKADFDRTIGIHPTCSETFTTLHVTKKSGVSPIVSGCCG", "soluble on expression in E. coli": "soluble"},
      {"sequence": "MAHHHHHHMSDDDDKIYIYSDLFSKNFSDDEKDDSYEREKQVYSGSETQNAENEYSKLRAQNSTILNNYFDNDNIKNVENLKSNDPDQIDLILFPVNKNYYMNLFDGQLIENIHSIKLRKAGFYAIYVENNNNSKWDGIYFGLSRMQVELDYKLITKKNKDGGEYEKRNTSSYDNTESVQNTVGSEKEETENKNEETSNYNSNLNNEINKICKYNLDQTDILLDDSNSERRRNSKFKIKNTNYYDNLMLQNKYTNSILYDDDDDKNNTETYTCTFKTEDQIRVPSQKKKYIYLYNKYDNATLDLNVHTYMSLGMSILCKYSLLYCGKYNHIPRDPYTPFKKPVSILSLDGGGILTISTLLVLNRLEAELRKEIGSDDIKLIDCFDMVCGTSAGGLISLALLREIDLQDVSNMWPSTIKKVFEGNRNIISGIFFEGYDVNNVKDVFLERMGNKFMSSYKKFYCFVTATDVKHKPYKLFLIRNYTHKYNSINAESYDGINKVPLWLAAWATASAPTYLKGPSAEDIKKLGINIKPEIHLVDGALKASNPALIALEECARLNNKNLSTFIKEDLDTLVSIGTGQVPTKLTQSGASSKSASTFEILINSTHLLTRANDTHREVLQRLADRENTYFRFNVPHIGDIEIDSQDVRDFDLISKATQDYLFDEKFYEIKRLAHKLANNYIRSKYL", "soluble on expression in E. coli": "not soluble"},
      {"sequence": "MNEISVVLPAYNEEENIQKLVKRWQQLCKDLKYKYELSLNIFVIDDGSKDKTEVIGRELERKYDNFYLIKHDKNKGLGEAINTGIKYVMEKRSDSKYVCIMDCDNTQDPRYVFSMIEKMEKTDVVIASRYQKGSCVKGVPFFRLTASYGARFVYTIFLGVKNVRDYTCGYRLYRTSALKTAFKVFGESFIEESGFTCMVELLYKLNICGAVFKEVPFTLRYDFKGGVSKMKVLITAINSVKLTLRLKKIRKGVEPVLEDLEHHHHHH", "soluble on expression in E. coli": "not soluble"},
      {"sequence": "MDMKRRIHLELRNRTPAAVRELVLDNCKSNDGKIEGLTAEFVNLEFLSLINVGLISVSNLPKLPKLKKLELSENRIFGGLDMLAEKLPNLTHLNLSGNKLKDISTLEPLKKLECLKSLDLFNCEVTNLNDYRESVFKLLPQLTYLDGYDREDQEAPDSDAEVDGVDEEEEDEEGEDEEDEDDEDGEEEEFDEEDDEDEDVEGDEDDDEVSEEEEEFGLDEEDEDEDEDEEEEEGGKGEKRKRETDDEGEDD", "soluble on expression in E. coli": "soluble"},
      {"sequence": "MKKNDLSALQENCFCFCDEEISREAPFQVPIDFPEGFKVDTAEASAAVTWSTDNLSCISEPCLIQTGPEPEDIGVRYAVRVQGTITLLVSVSPVRNQYGQGDGAVSVIHTEEIDQVVYYAAQSGRCPDFSQITVEDLLIVPPFYGSPLTVAGTLVLPPSPDPQSYVFTANTGDSTVSVIDADLNTVVKTIPFSDVPTNLGVTFDKAFTYVLHGNTNLVSVIDNKTLTIINTITVGGGPRKIEFDPTDEFAYVMAAGSIYVINTASQSVIDVIPIPGALDFALDPNGQYVYTANGSSWSVDKYDVNTGQLVESIIDTFEFPSLITTPYAGNFAYVLNGELWPKGVTEISLSPLSRGGDFSRLFETLRTIVFSLDSTRAYFLEPYSEPFLINNLYVVNTARQRIIANVSLPGAFDLAVTPDKQYIYAAQPNDNAVTVYRTSDYTAVTVIPVGAGPSAIAMLEHHHHHH", "soluble on expression in E. coli": "not soluble"},
      {"sequence": "MRNKNMSTIYQTSATASAGRNGVVSTEDKLLELNLSYPKEMGGSGTATNPEQLFAVGYAACFSNAILHVAREAKVALKEAPVTATVGIGPNGQGGFALSVALAAHIALEDEQARQLVTVAHQVCPYSNAVRGNIDVQVSVNGLAL", "soluble on expression in E. coli": "not soluble"},
      {"sequence": "MTHNHHHQAVDNLLNVFSRASHDLTVVHSKLDKEFQQMYPANANPMKLIQRIKKLQEDVTLLKHQCLDLLSAKQDLIDKAQTTLVGNCNLIQKMNASLGESTNGDTDDALADFNQIIDEWTMQVRSRTVGETEDADKEDINKMLFSAICHTN", "soluble on expression in E. coli": "soluble"},
      {"sequence": "MAMPTIRHVRAFIVRGGGADYHDQPGGHWIDDHISTPMARYPEYRQSRQSFGINVLGTLVVEIEASDGTVGFAVTTGGEIGAFIVEKHLARFLEGQLVTDIEKMWDQMYFSTLYYGRKGVVLNTISGVDLALWDLLAKVRKEPVYQLLGGPVRDELVFYATGARPDLAKEMGFIGGKLPLQHGPAEGDAGLRQNLDKLAEMRSRVGDDFWLMYDCWMSLDVPYATRLAQAAHEYGLKWIEECLPPDDYWGYAELRRNVPRGMMVSTGEHEATRWGFRMLLEMQCCDLIQPDVGWCGGITELIKISALADAHNVMVVPHGSSVYSYHFVVTRHNSPFAEFLMMAPKADEVVPMFTPLLLDEPVPVNGRMKVPDAPGFGVRLNPECALVRPYAR", "soluble on expression in E. coli": "soluble"},
      {"sequence": "MGSDKIHHHHHHLTDAEIDASFNPYQAGPTTSPGITPGMKIDKSNAQKFRDIIDPATYALIEQGKLEFPVEETHSIALHPNYIAATKKHSSQVKLGSATGTIEGYVAGRPFPGKPDKSDPRAGEKLAFNYKYAQIVGDSGRIYPFIWQYKDARSGKVERQLEFDFNFLSFKHRTTQLPTADIEPNPSKFYRGIYLKVLSPQDLKNTQLLIQRFDDDTKLDDSYLYLGFQRRVRRLATGQTTDSFLGSDLMIEDFEGYNGRVPDMDWKYVETKVMLLPVYRHSEWKKTEPRDQMGYGQVQFDGQAQCFQNIPWSLRVVHVIEGVPVESRNPIGKRILYMDAQTSIFPIINMYDRKGALWKRWAIGFSDSAYHAPANQAAGIAIYTSASMLDVQAQHCTTLQLRMISDPALSPPSIFSVQNLRGGD", "soluble on expression in E. coli": "not soluble"},
      {"sequence": "DPDTRIPVINLEDGTRLVGEDAPKNKDLVEWLKLHPTYTVDMPSYVPKNADVLFSSFQKPKQKRHRCRNPNKLDINTLTGEERVPVVNKRNGKKMGGAMAPPMKDLPRWLEENPEFAVAPDWTD", "soluble on expression in E. coli": "soluble"},
      {"sequence": "MSHVSLQEFLKTEPDGTLEVVAEQYNTTLLEVVRNLPSSTVVPGDKFDTVWDTVCEWGNVTTLVHTADVILEFSGELPSGFHRHGYFNLRGKHGMSGHIKAENCTHIALIERKFMGMDTASILFFNKEGSAMLKIFLGRDDHRQLLSEQVSAFHTLAASLKEHA", "soluble on expression in E. coli": "soluble"},
      {"sequence": "MSSPSKRREMDMMKLMMSDYKVETINDGMQEFYVEFNGPKDSLYQGGVWKIRVELPDAYPYKSPSVGFITKIYHPNVDELSGSVCLDVINQTWSPMFDLVNVFETFLPQLLLYPNPSDPLNGEAAALMMRDRPAYEQRVKEYCEKYAKPGEGSEDKSSDEELSEEEYGSDNEDDDDDDVAIAGKPDP", "soluble on expression in E. coli": "not soluble"},
      {"sequence": "MSLKPRVVDFDETWNKLLTTIKAVVMLEYVERATWNDRFSDIYALCVAYPEPLGERLYAETKIFLESHVRHLYRYWEEYSKGADYMDCLYRYLNTQYIKKNKLTEADIQYGYGGVDMNEPLMEIGELALDMWRKLMVEPLQNILIRMLLREIKNDRGGEDPNQKVIHGVINSFVHVEQYKKKFPLKFYQGIFVSPFLTETGEYYKQEASNLLQESNCSQYMEKVLGRLKDEEIRCRKYLHPSSYTKVIHECQQRMVADHLQFLHSECHSIIQQERKNDMANMYVLLRAVSSGLPHMIEELQKHIHDEGLRATSNLTQEHMPTLFVESVLEVHGKFVQLINTVLNGDQHFMSALDKALTSVVNYREPKSVCKAPELLAKYCDNLLKKSAKGMTENEVEDKLTSFITVFKYIDDKDVFQKFYARMLAKRLIHGLSMSMDSEEAMINKLKQACGYEFTSKLHRMYTDMSVSADLNNKFNNFIRNQDTVIDLGISFQIYVLQAGAWPLTQAPSSTFAIPQELEKSVQMFELFYSQHFSGRKLTWLHYLCTGEVKMNYLGKPYVAMVTTYQMAVLLAFNNSETVSYKELQDSTQMNEKELTKTIKSLLDVKMINHDSEKEDIDAESSFSLNMSFSSKRTKFKITTSMQKDTPQELEQTRSAVDEDRKMYLQAAIVRIMKARKVLRHNALIQEVISQSRARFNPSISMIKKCIEVLIDKQYIERSQASADEYSYVA", "soluble on expression in E. coli": "soluble"}
    ]}
  ]
}
